Five molecules from US20250019454A1 (BIOCYTOGEN PHARMACEUTICALS BEIJING, published 2025) can be followed below.

In experiment [1] the target is T1, mouse TNFR2 (on transfected CHO cells) (mouse, UniProt P25119 23-474).
T1 construct: also called mTNFR2
T1 sequence: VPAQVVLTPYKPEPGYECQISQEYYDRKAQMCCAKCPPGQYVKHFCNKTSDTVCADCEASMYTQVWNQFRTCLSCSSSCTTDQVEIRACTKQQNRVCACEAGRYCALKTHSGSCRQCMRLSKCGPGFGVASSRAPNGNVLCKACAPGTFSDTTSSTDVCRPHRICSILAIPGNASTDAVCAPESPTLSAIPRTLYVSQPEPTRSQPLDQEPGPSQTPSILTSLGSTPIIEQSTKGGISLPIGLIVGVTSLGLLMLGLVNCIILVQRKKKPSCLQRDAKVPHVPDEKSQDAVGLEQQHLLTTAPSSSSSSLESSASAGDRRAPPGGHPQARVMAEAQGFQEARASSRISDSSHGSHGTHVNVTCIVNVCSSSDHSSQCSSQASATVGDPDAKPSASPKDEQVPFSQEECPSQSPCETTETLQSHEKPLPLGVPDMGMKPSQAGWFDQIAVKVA
In words: flow cytometry on transfected CHO cells. As to the method:
(§1) 30 μl CHO cells (1×10⁵ cells) were added to each well. 30 μl purified anti-TNFR2 antibodies (10 μg/mL) (as listed in Table 4) were added to each well and were incubated at 4° C. for 30 minutes.
(§2) After two washes with PBS (1600 rmp, 6 min), 50 μl of Alexa Fluor labeled anti-human IgG Fc antibody […] was added into each well 1:500 dilution, incubated at 4° C. for 15 minutes, followed by a PBS wash (1200 rmp, 5 min). The signals for AF647 were detected by flow cytometry.
Background: Flow cytometry measures light scatter and fluorescence of single cells or particles in a stream.

The target of experiment [2] is T2, dog (Canine) TNFR2 (on transfected CHO cells) (dog).
T2 construct: also called dTNFR2
T2 chain: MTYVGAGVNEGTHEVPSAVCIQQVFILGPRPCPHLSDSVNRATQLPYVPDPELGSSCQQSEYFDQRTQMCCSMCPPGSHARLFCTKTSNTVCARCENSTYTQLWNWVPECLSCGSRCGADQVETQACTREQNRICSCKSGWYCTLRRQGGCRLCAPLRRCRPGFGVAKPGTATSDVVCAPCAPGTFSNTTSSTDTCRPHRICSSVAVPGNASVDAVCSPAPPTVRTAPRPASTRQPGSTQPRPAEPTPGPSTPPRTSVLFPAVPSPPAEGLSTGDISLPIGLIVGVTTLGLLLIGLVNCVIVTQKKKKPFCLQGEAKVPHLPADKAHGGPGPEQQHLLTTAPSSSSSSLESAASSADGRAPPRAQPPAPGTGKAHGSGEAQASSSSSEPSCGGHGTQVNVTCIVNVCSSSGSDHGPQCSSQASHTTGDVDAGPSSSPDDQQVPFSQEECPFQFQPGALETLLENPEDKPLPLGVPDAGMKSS
In words: flow cytometry on transfected CHO cells. As to the method: as §1, §2

Experiment [3] has as its target T3, human TNFR2 (expressed on cells) (human, UniProt P20333 23-461).
T3 construct: also called hTNFR2; human TNF Receptor 2
T3 sequence: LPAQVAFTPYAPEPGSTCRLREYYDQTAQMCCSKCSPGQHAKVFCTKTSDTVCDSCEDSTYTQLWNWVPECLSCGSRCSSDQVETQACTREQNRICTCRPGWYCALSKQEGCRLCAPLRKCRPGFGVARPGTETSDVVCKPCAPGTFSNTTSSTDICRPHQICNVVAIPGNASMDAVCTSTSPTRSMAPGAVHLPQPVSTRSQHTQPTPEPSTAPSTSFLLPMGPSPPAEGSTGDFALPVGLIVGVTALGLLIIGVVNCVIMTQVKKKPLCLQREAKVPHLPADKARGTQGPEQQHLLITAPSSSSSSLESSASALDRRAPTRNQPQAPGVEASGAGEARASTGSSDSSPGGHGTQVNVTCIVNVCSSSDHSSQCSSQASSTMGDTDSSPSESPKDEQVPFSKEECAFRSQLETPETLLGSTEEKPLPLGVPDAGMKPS
The experiment in a line: flow cytometry competition, CHO cells with human TNFR2, antibody 10 µg/mL, Biotin-hTNFα 0.5 µg/mL. As to the method:
(§3) 30 μl of Biotin-hTNFα (Acro Biosystems, Cat #: TNA-H82E1) was added to each well (with a final concentration of 0.5 μg/mL in each well). The cells with Biotin-hTNFα and the antibodies were incubated at 4° C. for 30 minutes.
(§4) The signals for AF647 and PE were determined by flow cytometry (Thermo Attune NX).

The target of experiment [4] is T3, human TNFR2 (expressed on cells). In words: flow cytometry competition, CHO cells with human TNFR2, antibody 0.1565 µg/mL, Biotin-hTNFα 0.5 µg/mL. The procedure: as §3, §4
In experiment [5] the target is T4, ΔCRD3-TNFR2 protein (with CRD3 deletion), on CHO-S cells (human, UniProt P20333 23-461).
T4 construct: also called CHO-SΔCRD3-TNFR2; TNFR2 lacking CRD3
T4 sequence: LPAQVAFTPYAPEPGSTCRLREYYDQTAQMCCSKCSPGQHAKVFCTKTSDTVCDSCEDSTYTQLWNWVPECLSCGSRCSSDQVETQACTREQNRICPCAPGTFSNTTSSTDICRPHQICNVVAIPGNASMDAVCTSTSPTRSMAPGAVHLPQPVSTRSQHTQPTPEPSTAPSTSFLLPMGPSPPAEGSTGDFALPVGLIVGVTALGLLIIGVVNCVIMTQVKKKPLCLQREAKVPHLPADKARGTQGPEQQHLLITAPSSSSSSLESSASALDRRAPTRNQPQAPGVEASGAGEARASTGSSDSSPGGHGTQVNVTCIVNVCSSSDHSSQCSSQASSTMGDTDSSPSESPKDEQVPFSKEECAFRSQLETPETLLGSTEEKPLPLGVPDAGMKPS
In words: FACS on CHO-S cells with ΔCRD3-TNFR2, AF647 anti-human IgG Fc secondary. From the text:
TNFR2 has four cysteine rich domains (CRD). In another experiment, FACS was used to detect the binding of anti-hTNFR2 antibodies to TNFR2 proteins with different structural domains. Secondary antibody (Alexa Fluor® 647 AffiniPure F(ab′) 2 Fragment Goat Anti-Human IgG, Fcγ fragment specific, Jackson ImmunoResearch Laboratories, Inc., Cat #: 151524) was used. The fluorescence-labeled secondary antibody can attach to the Fc region of the anti-hTNFR2 antibodies so that the anti-hTNFR2 antibodies that are bound to the ΔCRD cells can be detected by FACS. Specifically, ΔCRD1-TNFR2 protein (with CRD1 deleteion), ΔCRD2-TNFR2 protein (with CRD2 deleteion), ΔCRD3-TNFR2 protein (with CRD3 deleteion) or ΔCRD4-TNFR2 protein (with CRD4 deleteion) were expressed in CHO-S cells respectively, and then the binding between the cells and different anti-hTNFR2 antibodies was detected.

B1: BC-1B6-IgG1 (antibody, V domains shown)
VH: QVQLVESGGGVVQPGRSLRLSCAASGFTFSNFGMHWVRQAPGKGLEWVAVIWYEGSDKYYADSVKGRFTISRDNSKNTLYLQMNSLRAEDTAVYYCARDSSWGFLLYGMDVWGQGTTVTVSS
VL: DVVMTQSPLSLPVTLGQPASISCRSSRSLEYSDGNTYLNWFQQRPGQSPRRLIYKVSNRDSGVPDRFSGSGSGTAFTLKISGVEAEDVGVYYCMQGTHWPPTFGGGTKVEIK
notes: Human VH/VL joined to the human IgG1 subtype
For the molecule B1, the binding result in experiment [1] and in experiment [2] was “no binding (tested: 10 µg/mL)” in each case. In addition, the “percentage of tested cells that had Streptavidin signals” value (shortened to “percentage”) in experiment [3] was 75.1%; in experiment [4], 82.7%.

B2: BC-1C3-IgG1 (antibody, V domains shown)
VH: QVQLVESGGGVVHPGKSLRLSCAASGFTFNIYGMHWVRQAPGKGLEWVALISYDGNDKYFADSVKGRFTISRDNSKNTLYLQMNSLRAEDTAVYYCAKAVDTAVVTFFDYWGQGTLVTVSS
VL: EIVMTQSPVTLSVSPGERATLSCRASQSVSSNLAWYQQKPGQAPRLLIYSASTRATGIPARFSGSGSGTEFTLTISSLQSEDLAVYYCQQYSNWPFTFGPGTKVDIK
notes: as for B1
Turning to B2, the binding result in experiment [1] and in experiment [2] was “no binding (tested: 10 µg/mL)” in each case. In experiment [5], the “positive rate of binding (% of cells)” value came out at 0.81%. The “percentage” value was 71.1% in experiment [3] and 74.3% in experiment [4].

B3: BC-1A8-IgG1 (antibody, V domains shown)
VH: QVQLQQSGPGLVKPSQTLSLTCAISGDSVSSNSAAWNWIRQSPSRGLEWLGRTYYRSKWYNDYALSVKSRITINPETSKNQFSLQLNSVTPEDTAVYYCAREDGVGGTKDYFDYWGQGTLVTVSS
VL: DIQMTQSPSSLSASVGDRVTITCQASQDIDNYLNWYQQKPGKAPKLLIYDVSNLEIGVPSRFSGSGSGTDFTFTISSLQPEDIATYYCQQYDNLPLTFGQGTRLEIK
notes: Fully human VH/VL joined to the human IgG1 subtype, kappa light chain (RenMab mice)
For B3, the binding result in experiment [1] and in experiment [2] was “no binding (tested: 10 µg/mL)” throughout. In experiment [5], the “positive rate of binding (% of cells)” value came to 0.52%. The “percentage” value in experiment [3] was 12%; in experiment [4], 67.4%.

B4: BC-1F4-IgG1 (antibody, V domains shown)
VH: QVQLQQSGPGLVKPSQTLSLTCAISGDSVSSDSSAWNWIRQSPSRGLEWLGRTYYRSKWYNDYTVSVKSRITINPDTSKNQFSLQLNSVTPEDTAVYYCAREDGVGGTKDYFDYWGQGTLVTVSS
VL: DIQMTQSPSSLSASVGDRVTITCQASQDISNYLNWYQQKPGKAPKLLIYDASNLETGVPSRFSGSGSGTDFTFTINSLQPEDFATYFCQQYDNLPITFGQGTRLEIK
notes: as for B1
Turning to B4, the binding result in experiment [1] and in experiment [2] was “no binding (tested: 10 µg/mL)” throughout. In addition, the “positive rate of binding (% of cells)” value in experiment [5] was 0.47%. Moreover, the “percentage” value in experiment [3] worked out at 18.5%; in experiment [4], 76.2%.

B5: BC-1F10-IgG1 (antibody, V domains shown)
VH: QVQLQQWGAGLLKPSETLSLICAVYDGSFSGDYWSWIRQPPGKGLEWIGEINHSGSTNYNPSLKSRVTISVDTSKNQFSLKLSSVTAADTAVYYCARGHWNYDYYYGMDVWGQGTTVTVSS
VL: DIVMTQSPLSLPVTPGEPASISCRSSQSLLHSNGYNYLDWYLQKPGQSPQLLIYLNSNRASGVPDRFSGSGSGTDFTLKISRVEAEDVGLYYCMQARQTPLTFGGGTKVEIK
notes: as for B1
Turning to B5, the binding result in experiment [1] and in experiment [2] was “no binding (tested: 10 µg/mL)” throughout. In addition, the “positive rate of binding (% of cells)” value in experiment [5] was found to be 23.1%. Further, the “percentage” value in experiment [3] amounted to 51.9%; in experiment [4] it was 55.2%.
